Laboratory results published in patent US20230381310A1.

Target: human FcγRIIb (CD32B) (human) (UniProt P31994)
Test: cell-based or functional assay

Chain of UniProt P31994 (P31994 43-310): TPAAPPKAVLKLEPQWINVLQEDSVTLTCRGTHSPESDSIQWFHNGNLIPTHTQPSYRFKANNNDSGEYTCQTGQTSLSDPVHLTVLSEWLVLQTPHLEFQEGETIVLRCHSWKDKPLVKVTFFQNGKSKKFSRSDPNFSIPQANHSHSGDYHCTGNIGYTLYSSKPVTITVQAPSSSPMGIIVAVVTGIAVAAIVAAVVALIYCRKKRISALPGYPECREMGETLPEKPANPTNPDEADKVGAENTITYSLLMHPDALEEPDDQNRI

- surface accessible CD20 after 6 h culture (CLL cells): 40%
Substance: rituximab F(ab')2 fragment
